Measured values published in patent US10183062B2, “Treatment for cancer” (The University of Nottingham, priority 2013, dated 2019).
“Also recorded” adds a separate entry of the source.

Key:
[1] = system: BliNTR, NTR from Bacillus licheniformis; details: Emptage et al., 2009; read-out: Km^NADH; cited from earlier work
[2] = system: E. coli NfnB variant N71S/F124K; details: Searle et al., 2004 and Race et al., 2007; read-out: Km^NADH; cited from earlier work
[3] = system: E. coli NfnB nitroreductase, wild type; details: Knox et al., 1992; read-out: Km^NADH; cited from earlier work
[4] = system: NC(=O)c1cc(N2CC2)c([N+](=O)[O-])cc1[N+](=O)[O-]; test: CB1954 nitroreductase activity, HPLC, purified His-tagged HsoNTR; assay type: biochemical, Haemophilus somnus 129PT; details: pH 7.0; for kcat: 37° C.
Excerpt: (§1) Genes encoding homologs of E. coli NfnB and Bacillus amyloliquefaciens YwrO from several bacteria were cloned into an E. coli expression vector for screening (see Methods below). These were the NfnB homolog from Neisseria meningitidis MC58 (‘NmeNTR’, accession number Q9K022), the NfnB homolog from Haemophilus somnus 129PT (‘HsoNTR’, accession number ZP_00122352.1), the NfnB homolog from Burkholderia fungorum LB400 (‘BfuNTR’, accession number ZP_00029570.1), the YwrO homolog from Vibrio cholerae (‘VchYwrO’, accession number Q9KNX3), the YwrO homolog from Rhodobacter sphaeroides (‘RspYwrO’, accession number ZP_00007082.1), and two YwrO homologs from Pseudomonas aeruginosa (‘PaeYwrO1’, accession number Q9HUJ0; and ‘PaeYwrO2’, accession number Q9I4B3).
(§2) For determination of CB1954 nitroreductase kinetic parameters, six-histidine affinity-tagged enzymes were purified from cell lysates purified using a Novagen His-Bind kit in accordance with the manufacturer's instructions.
(§3) CB1954 nitroreductase activity was determined essentially as described by Anlezark (6). Reaction mixtures containing 500 μM NADH or NADPH and a small quantity of enzyme (either crude lysate or purified enzyme) were assembled in pre-warmed (to 37° C.) 100 mM sodium phosphate buffer (pH 7.0), and started with the addition of 100 μM CB1954 and prompt mixing.
(§4) To determine initial reaction rates during preliminary screening of CB1954 nitroreductase candidates, aliquots of the reaction mixtures taken at various times were injected into a Partisphere SCX (100×4.7 mm) HPLC column and eluted isocratically at 2 ml/min with 130 mM NaH2PO4 (pH 5.0). Eluates were continuously monitored at 260 nm and 325 nm, and the absorbance spectra of eluting components recorded using a photodiode array detector. Peaks were identified with reference to standards and/or by their known absorbance spectra (7) and anticipated column retention times as appropriate. Rates were determined based on the decrease in the area under the CB1954 peak over time, normalised to the known starting concentration of 100 μM using the peak from the zero timepoint sample.
(§5) To determine initial reaction rates and CB1954 nitroreduction products in later experiments with purified proteins, peaks were identified as before, and rates were determined based on the increase in the area under the 4-hydroxylamine derivative peak over time, normalised using enzymatically-synthesised 4-hydroxylamine standards.
(§6) NmeNTR and HsoNTR were each affinity-tagged, over-expressed, purified, and the CB1954 nitroreductase activities of the purified proteins characterized using the HPLC assay. The reaction products and kinetic parameters of these enzymes with respect to CB1954 and NADH were determined (Table 1). […]

[5] = system: NC(=O)C1=CN([C@@H]2O[C@H](COP(=O)(O)OP(=O)(O)OC[C@H]3O[C@@H](n4cnc5c(N)ncnc54)[C@H](O)[C@@H]3O)[C@@H](O)[C@H]2O)C=CC1; test: as above; assay type: biochemical, Haemophilus somnus 129PT; details: other: 37° C., pH 7.0
Excerpt: as §1, §2, §3, §4, §5, §6

[6] = system: NC(=O)c1cc(N2CC2)c([N+](=O)[O-])cc1[N+](=O)[O-]; test: CB1954 nitroreductase activity, HPLC, purified His-tagged NmeNTR; assay type: biochemical, Neisseria meningitidis MC58; details: pH 7.0
Excerpt: as §1, §2, §3, §4, §5
(§7) NmeNTR and HsoNTR were each affinity-tagged, over-expressed, purified, and the CB1954 nitroreductase activities of the purified proteins characterized using the HPLC assay. The reaction products and kinetic parameters of these enzymes with respect to CB1954 and NADH were determined (Table 1). […] Moreover, the kinetic parameters of HsoNTR and NmeNTR differ dramatically from those of E. coli NfnB and other published enzymes (Table 1). […] NmeNTR would therefore approach saturation with CB1954 in a therapeutic regime using the maximum clinically-recommended dose, so the prodrug would be efficiently activated and high levels of tumour-specific cytotoxicity achieved.

[7] = system: NC(=O)C1=CN([C@@H]2O[C@H](COP(=O)(O)OP(=O)(O)OC[C@H]3O[C@@H](n4cnc5c(N)ncnc54)[C@H](O)[C@@H]3O)[C@@H](O)[C@H]2O)C=CC1; test: as above; assay type: biochemical, Neisseria meningitidis MC58; details: other: 37° C., pH 7.0
Excerpt: as §1, §2, §3, §4, §5, §7

[8] = Screen for CB1954 nitroreductase activity in E. coli lysates (HPLC); assay type: biochemical; details: 100 μM CB1954
Procedure: To screen for CB1954 nitroreductase activity of each of the functionally expressed genes, lysates of E. coli cells containing the NfnB or YwrO homolog expression plasmid were added to reaction mixtures containing CB1954 and the concentration of CB1954 was monitored by HPLC (see Methods below). […] Such activity was not observed in the lysates containing VchYwrO, PaeYwrO1 or PaeYwrO2.
(§8) Lysates of E. coli clones containing pMTL1015-based enzyme expression plasmids were prepared for preliminary characterisation of enzyme activities. […]
as §3
To determine initial reaction rates during preliminary screening of CB1954 nitroreductase candidates, aliquots of the reaction mixtures taken at various times were injected into a Partisphere SCX (100×4.7 mm) HPLC column and eluted isocratically at 2 ml/min with 130 mM NaH2PO4 (pH 5.0). Eluates were continuously monitored at 260 nm and 325 nm, and the absorbance spectra of eluting components recorded using a photodiode array detector. […]

[9] = CB1954 nitroreductase activity of purified His-tagged proteins (HPLC assay); assay type: biochemical
Procedure: as §2, §3, §5, §7

[10] = Specific menadione reductase activity in lysates of E. coli cells (screen for functional expression); assay type: biochemical; details: E. coli lysates containing expression plasmid
Procedure: In an initial screen for functional expression of each of the cloned genes, specific menadione reductase activity was determined in lysates of E. coli cells containing the NfnB or YwrO homolog expression plasmid. Enzymes from these families are expected to be NAD(P)H-dependent quinone reductases regardless of their nitroreductase activity against CB1954, and a photospectrometric menadione reductase assay is available (see Methods below), so this approach provides a convenient means to assess functional expression.
as §8
Menadione reductase activity was determined by the method of Knox (5). […] Reduction of cytochrome C was recorded by measuring increase in absorbance at 550 nm. Specific activities were calculated using the total protein concentrations of cell lysates, which were determined using the Bradford reagent (Sigma-Aldrich). Aliquots of cell lysates were mixed with 250 μl of Bradford reagent and incubated in the dark at room temperature for 5 min before absorbance was measured at 595 nm. Absorbance values were compared to those obtained using known concentrations of bovine serum albumin.

[11] = other: CB1954, cofactor NADPH, 37° C.

For `NC(=O)C1=CN([C@@H]2O[C@H](COP(=O)(O)OP(=O)(O)OC[C@H]3O[C@@H](n4cnc5c(N)ncnc54)[C@H](O)[C@@H]3O)[C@@H](O)[C@H]2O)C=CC1` [NADH], the Km [1] is given as 820 µM, the Km [2] is given as 5 µM and the Km [3] is given as 6 µM.

With “HsoNTR, Haemophilus somnus 129PT nitroreductase (NfnB homolog, ZP_00122352.1), wild type, SEQ ID NO: 2 (Histophilus somni)” the Km ([4]; other: 37° C.) was 22.03 µM, the kcat ([4]; other: CB1954, cofactor NADH) was 3.5 (NADH) S^−1 and the kcat ([4]; other: CB1954, cofactor NADPH) was 13.13 (NADPH) S^−1. It also gave a Km [5] of 644 µM.

For “NmeNTR, Neisseria meningitidis MC58 nitroreductase (NfnB homolog, Q9K022), wild type, SEQ ID NO: 1 (Neisseria meningitidis MC58)”, the Km ([6]; other: 37° C.) was 2.47 µM, the kcat ([6]; other: 37° C.) was 4.04 (NADH) and the kcat/Km ([6]; other: 37° C.) was 1.636 (NADH). The kcat [6, 11] was 15.23 (NADPH), the kcat/Km [6, 11] was 6.166 (NADPH) and the Km [7] was 188 µM.

B1: HsoNTR: NfnB homolog nitroreductase from Haemophilus somnus 129PT, accession ZP_00122352.1, SEQ ID NO: 2 (protein, listed as Haemophilus somnus)
chain: MTTISKEHVLDSFNRRASTRYYDPNKKISNEDFSYVLEFARLSPSSVGSEPWHFLVIQNPELRAKLKPVSWGMATQIDDASHLVVILAKKNARYDSEFLVQSMKRRGLSGEQIQATKEKYHLFQAEHMKTLENDRTLFDWASKQTYIALANMLTGAALIGIDSCPIEGFNYEKVNQILTDAGVLDSDEWGVSVMATFGYRAKEIKPKSRKSLDEIVTWVK
For B1, the “CB1954 nitroreductase activity (decrease in CB1954 concentration)” value [8] was “caused a decrease in CB1954 concentration; also recorded: rapidly consumed”, the “Kcat/K^CB1954” value ([9]; NADH) was 0.159 (NADH) s^−1μM^−1 and the “Kcat/K^CB1954” value ([9]; NADPH) was 0.596 (NADPH) s^−1μM^−1. The “specific menadione reductase activity of lysates versus control” value [10] was “significantly elevated above the control”.

B2: NmeNTR: NfnB homolog nitroreductase from Neisseria meningitidis MC58, accession Q9K022, SEQ ID NO: 1 (protein, listed as Neisseria meningitidis)
chain: MTVLSKEQVLSAFKNRKSCRHYDAARKISAEDFQFILELGRLSPSSVGSEPWQFIVVQNPEIRQAIKPFSWGMADALDTASHLVVFLAKKNARSDSPFMLESLKRRGVTEPDAVAKSLARYQAFQADDIKILDDSRALFDWCCRQTYIALANMMTGAAMAGIDSCPVEGFNYAEMERILSGQFGLFDAAEWGVSVAATFGYRVQEIATKARRPLEETVIWA
With B2 the “CB1954 nitroreductase activity (decrease in CB1954 concentration)” value [8] was “caused a decrease in CB1954 concentration; also recorded: rapidly consumed”, the Km [9] was under 6.3 µM and the “Km^CB1954 relative to the lowest previously reported (NfsA)” value [9] was “seven-fold lower”. The “Kcat/K^CB1954” value ([9]; NADH) was 1.636 (NADH) s^−1μM^−1, the “Kcat/K^CB1954” value ([9]; NADPH) was 6.166 (NADPH) s^−1μM^−1 and the “specific menadione reductase activity of lysates versus control” value [10] was “significantly elevated above the control”.
